Test results reported in patent US6803501B2 (Monsanto Technology, LLC, priority 2000, dated 2004).

Tests used:
[1] = molecular target: T1, P. hybrida glypS (wt) EPSPS (Petunia hybrida, glyphosate sensitive, wild type) (Petunia hybrida, UniProt P11043); experiment: kinetic characterization of EPSP synthase (Table 4); type: biochemical; conditions: read-out: apparent Km for PEP; saturating shikimate-3-phosphate
T1 sequence (P11043 73-516): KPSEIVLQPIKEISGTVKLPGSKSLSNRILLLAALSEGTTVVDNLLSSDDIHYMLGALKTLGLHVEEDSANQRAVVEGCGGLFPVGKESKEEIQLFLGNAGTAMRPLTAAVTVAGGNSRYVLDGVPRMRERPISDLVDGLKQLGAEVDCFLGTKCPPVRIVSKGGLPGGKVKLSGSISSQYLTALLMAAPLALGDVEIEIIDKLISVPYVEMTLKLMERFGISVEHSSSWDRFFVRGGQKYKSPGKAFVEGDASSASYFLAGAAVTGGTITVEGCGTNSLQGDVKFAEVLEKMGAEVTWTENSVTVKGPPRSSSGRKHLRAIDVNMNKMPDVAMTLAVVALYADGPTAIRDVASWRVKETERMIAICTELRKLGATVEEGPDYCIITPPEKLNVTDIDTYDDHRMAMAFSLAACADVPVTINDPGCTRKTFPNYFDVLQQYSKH
Description: Final sample volumes are approximately 0.5 ml.

[2] = substrate: C=C(OP(=O)(O)O)C(=O)O; experiment: as above; type: biochemical, Petunia hybrida; conditions: other: saturating shikimate-3-phosphate; 25.0 °C
Description: Preparation of extracts and radiometric EPSP synthase assays are performed using methods adapted from published procedures (Padgette et al., J. Biol. Chem. 266:22364-22369 (1991). Crown regions are dissected from whole plants, pulverized under liquid nitrogen with a mortar and pestle, then stored at −80° C. prior to extraction. Homogenates are prepared from 0.5 g tissue per sample in 25 ml extraction buffer (100 mM TrisCl, 10% glycerol, 1 mM EDTA, 1 mM benzamidine, 1 mM dithiothreitol, 1 mM 4-(2-aminoethyl)-benzenesulfonyl floride HCl, 0.1 mM leupeptin, pH 7.4) at 4° C. using a model PT3000 Polytron homogenizer (Brinkman Instuments Inc., Westbury, N.Y.). Debris is removed by 0.2 μm filtration, then the resulting supernatant is concentrated and desalted using an Ultrafree-15 centrifugal filtration unit (cat.#UFV2-BGC-10, Millipore Corp., Bedford, Mass.). […] Protein concentrations are determined spectrophotometrically using the Bio-Rad protein assay reagent (cat.#500-0006, Bio-Rad Laboratories, Hercules, Calif.). EPSPS specific activities are determined by assaying 10 μl extract at 25° C. for 5-15 min. […] Reactions are quenched with the addition of 50 μl 9:1 ethanol: 0.1 M acetic acid. […]

[3] = substrate: C=C(OP(=O)(O)O)C(=O)O; experiment: purified protein, by the assay type; conditions: other: saturating shikimate-3-phosphate; 25.0 °C
[4] = substrate: C=C(OP(=O)(O)O)C(=O)O; experiment: cells, lysate or membranes named; conditions: other: saturating shikimate-3-phosphate; 25.0 °C

For `C=C(OP(=O)(O)O)C(=O)O` [PEP, phosphoenolpyruvate], the Km [1] was 5 µM.

B1: P. hybrida EPSPS variant glypR (Pro-Ser) (Petunia x hybrida; P178S) (protein)
chain: KPSEIVLQPIKEISGTVKLPGSKSLSNRILLLAALSEGTTVVDNLLSSDDIHYMLGALKTLGLHVEEDSANQRAVVEGCGGLFPVGKESKEEIQLFLGNAGTAMRSLTAAVTVAGGNSRYVLDGVPRMRERPISDLVDGLKQLGAEVDCFLGTKCPPVRIVSKGGLPGGKVKLSGSISSQYLTALLMAAPLALGDVEIEIIDKLISVPYVEMTLKLMERFGISVEHSSSWDRFFVRGGQKYKSPGKAFVEGDASSASYFLAGAAVTGGTITVEGCGTNSLQGDVKFAEVLEKMGAEVTWTENSVTVKGPPRSSSGRKHLRAIDVNMNKMPDVAMTLAVVALYADGPTAIRDVASWRVKETERMIAICTELRKLGATVEEGPDYCIITPPEKLNVTDIDTYDDHRMAMAFSLAACADVPVTINDPGCTRKTFPNYFDVLQQYSKH
Work on B1 yielded a Km [2] of 44 µM.

B2: P. hybrida EPSPS variant glypR (Gly-Ala, Pro-Ser) (Petunia x hybrida; G173A/P178S) (protein)
chain: KPSEIVLQPIKEISGTVKLPGSKSLSNRILLLAALSEGTTVVDNLLSSDDIHYMLGALKTLGLHVEEDSANQRAVVEGCGGLFPVGKESKEEIQLFLGNAATAMRSLTAAVTVAGGNSRYVLDGVPRMRERPISDLVDGLKQLGAEVDCFLGTKCPPVRIVSKGGLPGGKVKLSGSISSQYLTALLMAAPLALGDVEIEIIDKLISVPYVEMTLKLMERFGISVEHSSSWDRFFVRGGQKYKSPGKAFVEGDASSASYFLAGAAVTGGTITVEGCGTNSLQGDVKFAEVLEKMGAEVTWTENSVTVKGPPRSSSGRKHLRAIDVNMNKMPDVAMTLAVVALYADGPTAIRDVASWRVKETERMIAICTELRKLGATVEEGPDYCIITPPEKLNVTDIDTYDDHRMAMAFSLAACADVPVTINDPGCTRKTFPNYFDVLQQYSKH
For B2, the Km [2] was 340 µM.

B3: P. hybrida EPSPS variant glypR (Gly-Ala) (Petunia x hybrida; G173A) (protein)
chain: KPSEIVLQPIKEISGTVKLPGSKSLSNRILLLAALSEGTTVVDNLLSSDDIHYMLGALKTLGLHVEEDSANQRAVVEGCGGLFPVGKESKEEIQLFLGNAATAMRPLTAAVTVAGGNSRYVLDGVPRMRERPISDLVDGLKQLGAEVDCFLGTKCPPVRIVSKGGLPGGKVKLSGSISSQYLTALLMAAPLALGDVEIEIIDKLISVPYVEMTLKLMERFGISVEHSSSWDRFFVRGGQKYKSPGKAFVEGDASSASYFLAGAAVTGGTITVEGCGTNSLQGDVKFAEVLEKMGAEVTWTENSVTVKGPPRSSSGRKHLRAIDVNMNKMPDVAMTLAVVALYADGPTAIRDVASWRVKETERMIAICTELRKLGATVEEGPDYCIITPPEKLNVTDIDTYDDHRMAMAFSLAACADVPVTINDPGCTRKTFPNYFDVLQQYSKH
For B3, the Km [2] was 200 µM.

B4: E. indica glypS EPSPS (Eleusine indica, naturally occurring glyphosate sensitive, wild type) (Eleusine indica) (protein)
chain: AGAEEVVLQPIKEISGVVKLPGSKSLSNRILLLSALAEGTTVVDNLLNSEDVHYMLGALKTLGLSVEADKAAKRAVVVGCGGKFPVEKDAKEEVQLFLGNAGTAMRPLTAAVTAAGGNATYVLDGVPRMRERPIGDLVVGLKQLGADVDCFLGTDCPPVRVKGIGGLPGGKVKLSGSISSQYLSALLMAAPLALGDVEIEIIDKLISIPYVEMTLRLMERFGVKAEHSDSWDRFYIKGGQKYKSPKNAYVEGDASSASYFLAGAAITGGTVTVEGCGTTSLQGDVKFAEVLEMMGAKVTWTETSVTVTGPQREPFGRKHLKAIDVNMNKMPDVAMTLAVVALFADGPTAIRDVASWRVKETERMVAIRTELTKLGASVEEGPDYCIITPPEKLNVTAIDTYDDHRMAMAFSLAACADVPVTIRDPGCTRKTFPDYFDVLSTFVKN
Molecule B4 has a Km [3] of 5 µM.

B5: E. indica glypR (Pro-Ser) EPSPS (Eleusine indica, naturally occurring glyphosate resistant, serine for proline at position 107, SEQ ID NO:7) (Eleusine indica) (protein)
chain: AGAEEVVLQPIKEISGVVKLPGSKSLSNRILLLSALAEGTTVVDNLLNSEDVHYMLGALKTLGLSVEADKAAKRAVVVGCGGKFPVEKDAKEEVQLFLGNAGTAMRSLTAAVTAAGGNATYVLDGVPRMRERPIGDLVVGLKQLGADVDCFLGTDCPPVRVKGIGGLPGGKVKLSGSISSQYLSALLMAAPLALGDVEIEIIDKLISIPYVEMTLRLMERFGVKAEHSDSWDRFYIKGGQKYKSPKNAYVEGDASSASYFLAGAAITGGTVTVEGCGTTSLQGDVKFAEVLEMMGAKVTWTETSVTVTGPQREPFGRKHLKAIDVNMNKMPDVAMTLAVVALFADGPTAIRDVASWRVKETERMVAIRTELTKLGASVEEGLDYCIITPPEKLNVTAIDTYDDHRMAMAFSLAACADVPVTIRDPGCTRKTFPDYFDVLSTFVKN
For B5, the Km [3] was 7 µM.

B6: Z. mays glypS (wt) EPSPS (Zea mays, glyphosate sensitive, wild type) (Zea mays) (protein)
chain: AGAEEIVLQPIKEISGTVKLPGSKSLSNRILLLAALSEGTTVVDNLLNSEDVHYMLGALRTLGLSVEADKAAKRAVVVGCGGKFPVEDSKEEVQLFLGNAGTAMRPLTAAVTAAGGNATYVLDGVPRMRERPIGDLVVGLKQLGADVDCFLGTDCPPVRVNGIGGLPGGKVKLSGSISSQYLSALLMAAPLALGDVEIEIIDKLISIPYVEMTLRLMERFGVKAEHSDSWDRFYIKGGQKYKSPKNAYVEGDASSASYFLAGAAITGGTVTVEGCGTTSLQGDVKFAEVLEMMGAKVTWTETSVTVTGPPREPFGRKHLKAIDVNMNKMPDVAMTLAVVALFADGPTAIRDVASWRVKETERMVAIRTELTKLGASVEEGPDYCIITPPEKLNVTAIDTYDDHRMAMAFSLAACAEVPVTIRDPGCTRKTFPDYFDVLSTFVKN
With B6 the Km [4] was 5 µM.
